Measured values published in the supplement of paper PMC11246515.
± gives the standard deviation of the averaged measurements.

Experiment: total protein half-life in vivo (active degradation + dilution); higher = more stable protein
[1] = E. coli NCM3722 delta-clpP delta-lon delta-hslV, growth: N-lim chemostat, doubling time 6 h
[2] = E. coli NCM3722 delta-hslV, growth: N-lim chemostat, doubling time 6 h
[3] = E. coli NCM3722 delta-lon, growth: N-lim chemostat, doubling time 6 h
[4] = wild type E. coli NCM3722, growth: C-lim chemostat, doubling time 3 h
[5] = wild type E. coli NCM3722, growth: C-lim chemostat, doubling time 6 h
[6] = wild type E. coli NCM3722, growth: C-lim chemostat, doubling time 12 h
[7] = wild type E. coli NCM3722, growth: N-lim chemostat, doubling time 6 h
[8] = wild type E. coli NCM3722, growth: N-lim chemostat, doubling time 12 h
[9] = wild type E. coli NCM3722, growth: P-lim chemostat, doubling time 6 h
[10] = wild type E. coli NCM3722, growth: P-lim chemostat, doubling time 12 h
[11] = E. coli NCM3722 delta-clpP, growth: N-lim chemostat, doubling time 6 h
[12] = E. coli NCM3722 delta-smpB, growth: N-lim chemostat, doubling time 6 h

Row | Sequence | total protein half-life in vivo [1] [h] | total protein half-life in vivo [2] [h] | total protein half-life in vivo [3] [h] | total protein half-life in vivo [4] [h] | total protein half-life in vivo [5] [h] | total protein half-life in vivo [6] [h] | total protein half-life in vivo [7] [h] | total protein half-life in vivo [8] [h] | total protein half-life in vivo [9] [h] | total protein half-life in vivo [10] [h] | total protein half-life in vivo [11] [h] | total protein half-life in vivo [12] [h]
1 | MARINRISITLCALLFTTLPLTPMAHASKQARESSATTHITKKADKKKSTATTKKTQKTAKKAASKSTTKSKTASSVKKSSITASKNAKTRSKHAVNKTASASFTEKCTKRKGYKSHCVKVKNAASGTLADAHKAKVQKATKVAMNKLMQQIGKPYRWGGSSPRTGFDCSGLVYYAYKDLVKIRIPRTANEMYHLRDAAPIERSELKNGDLVFFRTQGRGTADHVGVYVGNGKFIQSPRTGQEIQITSLSEDYWQRHYVGARRVMTPKTLR | > 8 | 3.67 | 2.15 | 2.57 ± 0.19 | 5.435 ± 0.027 | 9.36 ± 4.5 | 2.63 ± 0.55 | 6.47 ± 1.8 | 3.69 ± 0.066 | 6.68 ± 0.86 |  | 
2 | MGMENYNPPQEPWLVILYQDDHIMVVNKPSGLLSVPGRLEEHKDSVMTRIQRDYPQAESVHRLDMATSGVIVVALTKAAERELKRQFREREPKKQYVARVWGHPSPAEGLVDLPLICDWPNRPKQKVCYETGKPAQTEYEVVEYAADNTARVVLKPITGRSHQLRVHMLALGHPILGDRFYASPEARAMAPRLLLHAEMLTITHPAYGNSMTFKAPADF [P0AA37] | 4.98 ± 0.17 | 5.03 ± 0.2 | 4.55 ± 1.1 | 3.82 | 7.71 |  | 4.66 ± 0.18 | 7.6 | 6.39 | 12.7 | 4.59 ± 0.51 | 4.63 ± 0.28
3 | MVTINTESALTPRSLRDTRRMNMFVSVAAAVAGLLFGLDIGVIAGALPFITDHFVLTSRLQEWVVSSMMLGAAIGALFNGWLSFRLGRKYSLMAGAILFVLGSIGSAFATSVEMLIAARVVLGIAVGIASYTAPLYLSEMASENVRGKMISMYQLMVTLGIVLAFLSDTAFSYSGNWRAMLGVLALPAVLLIILVVFLPNSPRWLAEKGRHIEAEEVLRMLRDTSEKAREELNEIRESLKLKQGGWALFKINRNVRRAVFLGMLLQAMQQFTGMNIIMYYAPRIFKMAGFTTTEQQMIATLVVGLTFMFATFIAVFTVDKAGRKPALKIGFSVMALGTLVLGYCLMQFDNGTASSGLSWLSVGMTMMCIAGYAMSAAPVVWILCSEIQPLKCRDFGITCSTTTNWVSNMIIGATFLTLLDSIGAAGTFWLYTALNIAFVGITFWLIPETKNVTLEHIERKLMAGEKLRNIGV [P0AE24] |  |  |  |  |  |  |  | 9.72 |  |  |  | 
4 | MRVFKTKLIRLQLTAEELDALTADFISYKRDGVLPDIFGRDALYDDSFTWPLIKFERVAHIHLANENNPFPPQLRQFSRTNDEAHLVYCQGAFDEQAWLLIAILKPEPHKLARDNNQMHKIGKMAEAFRMRF | 7.33 |  |  |  |  |  |  |  | > 8 | 12.4 ± 1 |  | 
5 | MQYKDENGVNEPSRRRLLKVIGALALAGSCPVAHAQKTQSAPGTLSPDARNEKQPFYGEHQAGILTPQQAAMMLVAFDVLASDKADLERLFRLLTQRFAFLTQGGAAPETPNPRLPPLDSGILGGYIAPDNLTITLSVGHSLFDERFGLAPQMPKKLQKMTRFPNDSLDAALCHGDVLLQICANTQDTVIHALRDIIKHTPDLLSVRWKREGFISDHAARSKGKETPINLLGFKDGTANPDSQNDKLMQKVVWVTADQQEPAWTIGGSYQAVRLIQFRVEFWDRTPLKEQQTIFGRDKQTGAPLGMQHEHDVPDYASDPEGKVIALDSHIRLANPRTAESESSLMLRRGYSYSLGVTNSGQLDMGLLFVCYQHDLEKGFLTVQKRLNGEALEEYVKPIGGGYFFALPGVKDANDYFGSALLRV |  |  |  | 2.17 ± 0.16 | 4.4 | 7.71 |  |  |  |  | 5.58 | 5.85
6 | MCGIVGAIAQRDVAEILLEGLRRLEYRGYDSAGLAVVDAEGHMTRLRRLGKVQMLAQAAEEHPLHGGTGIAHTRWATHGEPSEVNAHPHVSEHIVVVHNGIIENHEPLREELKARGYTFVSETDTEVIAHLVNWELKQGGTLREAVLRAIPQLRGAYGTVIMDSRHPDTLLAARSGSPLVIGLGMGENFIASDQLALLPVTRRFIFLEEGDIAEITRRSVNIFDKTGAEVKRQDIESNLQYDAGDKGIYRHYMQKEIYEQPNAIKNTLTGRISHGQVDLSELGPNADELLSKVEHIQILACGTSYNSGMVSRYWFESLAGIPCDVEIASEFRYRKSAVRRNSLMITLSQSGETADTLAGLRLSKELGYLGSLAICNVPGSSLVRESDLALMTNAGTEIGVASTKAFTTQLTVLLMLVAKLSRLKGLDASIEHDIVHGLQALPSRIEQMLSQDKRIEALAEDFSDKHHALFLGRGDQYPIALEGALKLKEISYIHAEAYAAGELKHGPLALIDADMPVIVVAPNNELLEKLKSNIEEVRARGGQLYVFADQDAGFVSSDNMHIIEMPHVEEVIAPIFYTVPLQLLAYHVALIKGTDVDQPRNLAKSVTVE | 5.12 ± 0.77 | 4 ± 0.11 | 4.01 ± 0.15 | 3.14 ± 0.23 | 5.37 ± 0.3 | 9.64 ± 0.98 | 4.14 ± 0.067 | 6.35 ± 0.37 | 5.8 ± 0.14 | 11.3 ± 0.96 | 5.07 ± 1.3 | 3.98 ± 0.33
7 | MGIFKAKNPCTKNTIFTTSNTLIYGGFMISLNDFYEQICRKRRDLAYHMSECEWAVDTDVLEEDHPEIRIELGRMREQFWSSEKIGTRVRLYSCDVPWETRHHTVNGQLEIKEEYTELYDPAQECWKNLSSNLTKETFLPLVIEPFSINDIFKAHLMFASISFFWGKSIMSENENVAFKAFHRAAELFDKCIGMTWFNISVCNQKKLSEVRRSAGKKGGKSKAEVYHIIQLKLVELINDSVPNDGWKNKVVAVNELIEPLWDFIQMSEFEINNQNKKYRVATMSQDALVDTILNQWSLKNEDVKQAFDSAVRRKKRSK | 5.49 ± 0.65 |  |  |  |  |  |  |  |  |  |  | 
8 | MLKLTDITWLYHHLPMRFSLTVERGEQVAILGPSGAGKSTLLNLIAGFLTPASGSLTIDGVDHTTMPPSRRPVSMLFQENNLFSHLTVAQNIGLGLNPGLKLNAVQQGKMHAIARQMGIDNLMARLPGELSGGQRQRVALARCLVREQPILLLDEPFSALDPALRQEMLTLVSTSCQQQKMTLLMVSHSVEDAARIATRSVVVADGRIAWQGMTNELLSGKASASALLGITG | 4.96 ± 0.61 | 6.21 ± 1.1 | 5.79 ± 0.26 | 3.03 ± 0.11 | 5.94 ± 0.4 | 10.9 ± 0.42 | 5.13 ± 0.15 | 12.6 ± 1.7 | 5.54 ± 0.3 | 11.98 ± 0.032 | 5.67 ± 0.82 | 5.31 ± 0.54
9 | MIFTLRPYQQEAVDATLNHFRRHKTPAVIVLPTGAGKSLVIAELARLARGRVLVLAHVKELVAQNHAKYQALGLEADIFAAGLKRKESHGKVVFGSVQSVARNLDAFQGEFSLLIVDECHRIGDDEESQYQQILTHLTKVNPHLRLLGLTATPFRLGKGWIYQFHYHGMVRGDEKALFRDCIYELPLRYMIKHGYLTPPERLDMPVVQYDFSRLQAQSNGLFSEADLNRELKKQQRITPHIISQIMEFAATRKGVMIFAATVEHAKEIVGLLPAEDAALITGDTPGAERDVLIENFKAQRFRYLVNVAVLTTGFDAPHVDLIAILRPTESVSLYQQIVGRGLRLAPGKTDCLILDYAGNPHDLYAPEVGTPKGKSDNVPVQVFCPACGFANTFWGKTTADGTLIEHFGRRCQGWFEDDDGHREQCDFRFRFKNCPQCNAENDIAARRCRECDTVLVDPDDMLKAALRLKDALVLRCSGMSLQHGHDEKGEWLKITYYDEDGADVSERFRLQTPAQRTAFEQLFIRPHTRTPGIPLRWITAADILAQQALLRHPDFVVARMKGQYWQVREKVFDYEGRFRLAHELRG | 5.4 ± 0.095 | 3.55 ± 0.12 | 3.9 ± 0.26 | 2.79 ± 0.44 | 4.38 ± 0.35 | 7.46 ± 0.87 | 3.38 ± 0.3 | 5.32 ± 0.49 | 5.37 ± 0.26 | 10.1 ± 0.45 | 4.39 ± 0.49 | 3.3 ± 0.36
10 | MSQVSTEFIPTRIAILTVSNRRGEEDDTSGHYLRDSAQEAGHHVVDKAIVKENRYAIRAQVSAWIASDDVQVVLITGGTGLTEGDQAPEALLPLFDREVEGFGEVFRMLSFEEIGTSTLQSRAVAGVANKTLIFAMPGSTKACRTAWENIIAPQLDARTRPCNFHPHLKK [P0AEZ9] | 5.88 ± 0.086 | 5.23 ± 0.43 | 5.076 ± 0.019 | 3.17 ± 0.28 | 5.99 ± 0.53 | 10.3 ± 1.4 | 4.7 ± 0.53 | 8.21 ± 0.61 | 6.07 ± 0.18 | 13.4 ± 0.48 | 5.83 ± 0.34 | 4.7 ± 0.21
11 | MRNHQLGIYEKALAKDLSWPERLVLAKSCGFDFVEMSVDETDERLSRLDWSAAQRTSLVAAMIETGVGIPSMCLSAHRRFPFGSRDEAVRERAREIMSKAIRLARDLGIRTIQLAGYDVYYEDHDEGTRQRFAEGLAWAVEQAAASQVMLAVEIMDTAFMNSISKWKKWDEMLASPWFTVYPDVGNLSAWGNDVPAELKLGIDRIAAIHLKDTQPVTGQSPGQFRDVPFGEGCVDFVGIFKTLHKLNYRGSFLIEMWTEKAKEPVLEIIQARRWIEARMQEAGFIC |  |  |  | 1.06 | 1.6 ± 0.19 | 2.24 |  |  |  |  |  | 
